Measured values published in the supplement of paper PMC9170038.

Experiments:
[1] = system: MS2 coat protein; assay: apparent KD of MS2 coat protein, switch ON state; designed switch direction (-1 OFF switch, 1 ON switch): -1; higher = weaker reporter binding; settings: FMN input: 0 or 200 uM; Eterna round: R93 (includes R88 designs)
Outline: (§1)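 Titrations with SNAP-549-labelled MS2 coat protein ran in twofold steps from 0.7 or 1.5 nM to 3 µM, each step taking 0.8–1.5 h at the start and 10–20 min toward the end. The targets were designed RNA switches transcribed on-chip from Illumina sequencing clusters, held in 100 mM Tris-HCl pH 7.5, 80 mM KCl, 4 mM MgCl2, without or with constant ligand. Apparent KD was taken per design as the median of normalised cluster binding-curve fits.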

[2] = system: MS2 coat protein; assay: apparent KD of MS2 coat protein, switch OFF state (with FMN for OFF switches, without FMN for ON switches); designed switch direction (-1 OFF switch, 1 ON switch): -1; higher = weaker reporter binding; settings: FMN input: 0 or 200 uM; Eterna round: R93 (includes R88 designs)
Outline: as §1

Sequence | apparent KD of MS2 coat protein [1] | apparent KD of MS2 coat protein [2]
AAAUGACUAGGAUAUACAUGAGGAUCACCCAUGUGUUAAAAUAAAUACACAAAAGAAAGUAGAAGGAGUCAAAG [Mat - Exclusion 3 - Mayanna mod - D125] | 21.5 nM | 43.4 nM
AACAAGUCAGGAUAUGCGAAAAGAAAAUAAGAUACACAAAAGCAGAAGGGACAUGAGGAUCACCCAUGUAAAUA [JR_Exc004_Sub011] | 36 nM | 33.1 nM
AACAGGACAGGAUAUACAUGAGGAUCACCCAUGUGAAGAUUAAGAAGAAACCCACAAAGUAGAAGGGUCCUGGA [Ruby 93] | 25 nM | 51 nM
AACAGGACAGGAUAUACAUGAGGAUCACCCAUGUGAGAAUUAAGUAGAUUACCACAGAGUAGAAGGGUCCUGGA [Ruby 96] | 47.7 nM | 99.5 nM
AACAGUACAGGAUAUACAUGAGGAUCACCCAUGUAAAAAUAAAAAGGGAACUCAAAAAGUAGAAGGGUACUGGA [Moding Maslow revisited (73) 14] | 72.6 nM | 32.5 nM
AACAGUACAGGAUAUACAUGAGGAUCACCCAUGUAAAAUAAAUAAAAAUAAAAAGGAAGUAGAAGGGUACUGGA [Moding Maslow revisited (73) 18] | 30.1 nM | 26.4 nM
AACAGUACAGGAUAUACAUGAGGAUCACCCAUGUAAAGGGAAUAAAACAAAAAUAAAUGUAGAAGGGUACUGGA [Moding Maslow revisited (73) 21] | 69.3 nM | 129 nM
AACAGUACAGGAUAUACAUGAGGAUCACCCAUGUAGAGAGAAUAAAACAAAAAUAAAAGUAGAAGGGUACUGGA [Ruby 48] | 21.8 nM | 19.3 nM
AACAGUACAGGAUAUACAUGAGGAUCACCCAUGUGAAAAUUAAGUGGGAAACCACAAAGUAGAAGGGUACUGAA [Mat - Exclusion 3 - Eli mod - D59] | 22 nM | 114 nM
AACAGUACAGGAUAUACAUGAGGAUCACCCAUGUGAAAAUUAAGUGGGAAACCACAAGGUAGAAGGGUACUGGA [Mat - Exclusion 3 - Eli mod - D64] | 27.1 nM | 157 nM
AACAGUACAGGAUAUACAUGAGGAUCACCCAUGUGAAAAUUAAGUGGGAAACCACAGUGUAGAAGGGUACUGGA [Mat - Exclusion 3 - Eli mod - D54] | 102 nM | 51.9 nM
AACAGUACAGGAUAUACAUGAGGAUCACCCAUGUGAAAGAAAAGUGGCGUACCACAAAGUAGAAGGGUACUGGA [Mat - Exclusion 3 - JL mod - D23] | 26.9 nM | 122 nM
AACAGUACAGGAUAUACAUGAGGAUCACCCAUGUGAGAAUUAAGCAGCGUAACACACAGUAGAAGGGUAAUGGA [Ruby 20] | 46.4 nM | 40.7 nM
AACAGUACAGGAUAUACAUGAGGAUCACCCAUGUGAGAAUUAAGUGGAGAACCACAAAGUAGAAGGGUACUGAA [Mat - Exclusion 3 - JL mod - D8] | 39.2 nM | 147 nM
AACAUGUCAGGAUAUGUAGCAAAAAGUGAUCCAAAAAAGCUACAGAAGGGACAUGAGGAUCACCCAUGUAAAAA [Ex4: 933] | 124 nM | 44.5 nM
AACCAACAUGAGGAUCACCCAUGUCAGGAUAUGCAAACAACAAACAACAAACAACAAAGCAGAAGGGACAAAAA [Amethyst 82] | 17.8 nM | 19.5 nM
AACGGGCUAGGAUAUACACAAGCCUCAUAACAAAUAAACAAACAUGAGGAUCACCCAUGUAGAAGGAGCGCAAA [Quraaon] | 33 nM | 72.5 nM
AACUAGUGAGGAUAUGCAAGAAAAAAAAAAAAAAUAAAGGGACAUGAGGAUCACCCAUGUAGAAGGCACUAACA [Diamond 68] | 42.7 nM | 58.8 nM
AACUGACAUGAGGAUCACCCAUGUCAGGAUAUGACAUCGAAAAAAAAAAAAAUCGUUGUCAGAAGGGACAUGAA [Design 77: Sub-opt SB] | 16.7 nM | 13.1 nM
AACUGACAUGAGGAUCACCCAUGUCAGGAUAUGACAUCGAAAAAAAAAAAAAUCGUUGUCAGAAGGGACAUGGG [Design 73: Sub-opt QB] | 11.9 nM | 9.44 nM
AACUGACAUGAGGAUCACCCAUGUCAGGAUAUGAUUUGACGAAAAAAAAUAAGUCAUAUCAGAAGGGACAUGGA [Design 84: Sub-opt WB] | 26 nM | 45 nM
AACUGACAUGAGGAUCACCCAUGUCAGGAUAUGCAUCUUAGGAAAAAAAAACUAAGAUGCAGAAGGGACAUGGG [Design 3: Super Stable 3] | 16.8 nM | 15.8 nM

Sequence | apparent KD of MS2 coat protein [1] | apparent KD of MS2 coat protein [2]
AACUGACAUGAGGAUCACCCAUGUCAGGAUAUGCUUCAUAAAAAAAAAAAAAAAUGAUGCAGAAGGGAUAUGGA [Design 36 :P Sub-opt 12] | 21.5 nM | 13.6 nM
AACUGGGCAGGAUAUACAUGAGGAUCACCCAUGUAAAGAAAAGAAAGGUCCGAGGAAAGUAGAAGGGCCUGGAA [Variant 5 of Mod 1 of Ex3 sub 3, by Tesla's Dusciple Round 1] | 40.6 nM | 38.9 nM
AAGAAACAUGAGGAUCACCCAUGUCAGGAUAUUGAAAAGAAAAGAAAAGAAAGAAGAACAAGAAGGGACAAAGG [Neferkare (III) Neby] | 37.1 nM | 40.3 nM
AAGAACAGAGGAUAUACUAAAGAAAUGAAAAGAAAGAAAGAACAUGAGGAUCACCCAUGUAGAAGGCUGAAGAA [Yakbim Sekhaenre] | 25.9 nM | 13.5 nM
AAGAACAGAGGAUAUGCUAAAGAAAUAAAAAUAAAUAAAGAACAUGAGGAUCACCCAUGUAGAAGGCUGAAGAA [Seven kings] | 28.3 nM | 28 nM
AAGAAGACAGGAUAUACAUGAAAGAAAGAAAAGAAAAGAAAACAUGAGGAUCACCCAUGUAGAAGGGUCAAGAA [EteRNA is fun!] | 23.5 nM | 34.9 nM
AAGAAGGCAGGAUAUACAAAAUAAAAGAAAAGAAAGAAAGAACAUGAGGAUCACCCAUGUAGAAGGGCCAAGAA [Seankhibre Amenemhet VI] | 58.3 nM | 37.2 nM
AAGAAGGUAGGAUAUACUAAAGAAACUAAUGCAAAGAUAAAACAUGAGGAUCACCCAUGUAGAAGGGCCAGAAA [JR_Exc002_Sub016] | 35.6 nM | 25.1 nM
AAGAAGGUAGGAUAUACUAACGAAACUAAUGCAUAGAUAAAACAUGAGGAUCACCCAUGUAGAAGGGCCAGAAU [JR_Exc002_Sub015] | 43.8 nM | 26.6 nM
AAGAAGGUAGGAUAUACUAGGGCAACUAAUGCAAAGAUAGAACAUGAGGAUCACCCAUGUAGAAGGGCCAGAAA [JR_Exc002_Sub402] | 35.7 nM | 40.5 nM
AAGAAGUCAGGAUAUGCCAGAGAUCACGAAAGUGACGAGUAGCAGAAGGGACAUGAGGAUCACCCAUGUAAAGA [Opal 7] | 39.8 nM | 45 nM
AAGAAGUGAGGAUAUACGCGAACAAAAAAAAAAAAGAAAGCGUAGAAGGCACAUGAGGAUCACCCAUGUCCAAA | 27.7 nM | 34.9 nM
AAGAAGUGAGGAUAUAGUUGCACUAGCUAAUGCUAGUGCAACUAGAAGGCACAUGAGGAUCACCCAUGUAAAAG [Meechl Ex4 2] | 40.6 nM | 46.7 nM
AAGAAGUGAGGAUAUCGAAGACUGUCGAAAAGACAGUCGAACGAGAAGGCACAUGAGGAUCACCCAUGUGAUAA [Mat - Exaclusion 4 - Eli mod - D70] | 28.2 nM | 107 nM
AAGAAGUGAGGAUAUGCUGCUCGUCACAAAAGUGAUGAGUAGCAGAAGGCACAUGAGGAUCACCCAUGUAAAGA [JL eternac mod 1] | 40.6 nM | 48.8 nM
AAGAAUCGAGGAUAUACAUGAGGAUCACCCAUGUAAAAGAAAGAGGGAAAAGAGAAAAGUAGAAGGCGAAAGAA [Ptolemy Memphitis] | 45.9 nM | 21.6 nM
AAGAAUGAAGGAUAUACAUGAGGAUCACCCAUGUAAGAGAAAGAGGGAAAAGAGAAAAGUAGAAGGUCAAAGAA [Ruby 72] | 22 nM | 33.7 nM
AAGAGGUCAGGAUAUGCCCACCAGGAAAAACGUCCAGGUGGGCAGAAGGGACAUGAGGAUCACCCAUGUAAAGA [Opal 41] | 44.8 nM | 114 nM
AAGAGGUGAGGAUAUCGAAGAAGAAGAAGAAGAAGAAGAAACGAGAAGGCACAUGAGGAUCACCCAUGUAAGAA [Exclusion 4] | 23.4 nM | 18.8 nM
AAGAGUAGAGGAUAUACAUGAGGAUCACCCAUGUAAUCCGGAUAAGGAAGCAUGUCGUGUAGAAGGCUGCAUGA [MOD 3 of Nando (MS2 Riboswitches- Exclusion 3)] | 15.5 nM | 14.1 nM
AAGAUCAGAGGAUAUACAUAAGGUGAUGGAAACAUCGCCAAACAUGAGGAUCACCCAUGUAGAAGGCUGAUCAA [Mat - Exclusion 2 - JL mod - D61] | 35.7 nM | 43.7 nM
AAGGGACAUGAGGAUCACCCAUGUCAGGAUAUGAUGCGAAUAAAGAAAGAAGAAAGCAUCAGAAGGGACGCCAA [58%, Disencluded 3, 5] | 25.4 nM | 39.5 nM
